Measurements: patent US20150080315A1

Assays:
[1] = target: HDAC complex / nucleosome remodeling and deacetylase (NuRD) complex in SNU-398 nuclear extracts; experiment: cell-based or functional assay
[2] = target: HDAC complex / nucleosome remodeling and deacetylase (NuRD) complex in SNU-398 nuclear extracts; experiment: fluorescence polarization competition; unlabeled peptide displaces FITC-labeled wild type peptide from complexes in SNU-398 nuclear extracts

Molecule	engraftment of human AML cells treated with wild type peptide in NSG mice [1] [%]	IC50 [2] [µM]
endogenous SALL4 (SNU-398 cells) (from UniProt Q9UJQ4 1-1053)	0.5	–
MSRRKQAKPQHI [wild type 12-AA SALL4 peptide (…), unlabeled]	–	5
